Laboratory results: patent EP4663762A2 (HongKong Bioheng Biotech Limited, dated 2025)

T1: Human CTLA-4 / CD152 Protein, Fc Tag (ACRO) (human, UniProt P16410 36-161, limits assumed)
T1 construct: Bought reagent (ACRO); no catalogue number, no construct limits; not shown: Fc tag
T1 sequence (looked up): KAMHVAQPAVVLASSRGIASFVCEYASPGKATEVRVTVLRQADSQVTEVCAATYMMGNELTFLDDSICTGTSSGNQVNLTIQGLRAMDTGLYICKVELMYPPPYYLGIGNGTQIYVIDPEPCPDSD

T2: Human LAG-3 / CD223 Protein, His Tag (ACRO) (human, UniProt P18627 23-450)
T2 construct: Bought reagent (ACRO); no catalogue number, no construct limits; not shown: His tag
T2 sequence (looked up): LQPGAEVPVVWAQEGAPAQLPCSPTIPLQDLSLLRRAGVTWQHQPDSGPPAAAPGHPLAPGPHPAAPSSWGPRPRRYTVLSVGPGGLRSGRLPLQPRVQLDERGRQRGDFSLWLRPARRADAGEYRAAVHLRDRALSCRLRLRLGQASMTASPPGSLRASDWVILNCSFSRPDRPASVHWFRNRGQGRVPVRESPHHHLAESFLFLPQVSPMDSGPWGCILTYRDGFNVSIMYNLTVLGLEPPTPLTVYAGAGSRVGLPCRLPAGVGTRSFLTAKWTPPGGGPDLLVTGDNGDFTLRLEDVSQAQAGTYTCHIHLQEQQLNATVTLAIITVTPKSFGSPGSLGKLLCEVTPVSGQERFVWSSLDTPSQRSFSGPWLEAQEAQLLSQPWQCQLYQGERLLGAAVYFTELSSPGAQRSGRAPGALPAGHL

T3: Human TIGIT Protein, Fc Tag (ACRO) (human, UniProt Q495A1 22-141)
T3 construct: Bought reagent (ACRO); no catalogue number, no construct limits; also called Human TIGIT Protein, Fc TagTIGIT; not shown: Fc tag
T3 sequence (looked up): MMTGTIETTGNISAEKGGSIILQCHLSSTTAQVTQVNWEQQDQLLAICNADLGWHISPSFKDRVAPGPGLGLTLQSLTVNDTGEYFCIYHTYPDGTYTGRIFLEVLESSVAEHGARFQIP


Tests used:
Assay in all cases: flow cytometry, soluble tagged antigen staining T cells that carry the construct
[1] = target: T1, Human CTLA-4 / CD152 Protein, Fc Tag …
[2] = target: T2, Human LAG-3 / CD223 Protein, His Tag …
[3] = target: T4, Human PD-1 / PDCD1 Protein, His Tag (ACRO) (human, UniProt Q15116 25-167)
T4 construct: Bought reagent (ACRO); no catalogue number, no construct limits; also called CD279; not shown: His tag

[4] = target: T3, Human TIGIT Protein, Fc Tag (ACRO)

T4 sequence (Q15116 25-167 limits assumed): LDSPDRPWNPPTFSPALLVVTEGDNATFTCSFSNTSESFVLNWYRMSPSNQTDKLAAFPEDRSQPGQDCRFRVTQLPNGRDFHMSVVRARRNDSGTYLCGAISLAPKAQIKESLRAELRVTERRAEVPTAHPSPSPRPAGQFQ

Binder	binding result [1]	binding result [2]	binding result [3]	further results
immunosuppressive molecule of plasmid CAR19-C4T3 (anti-CTLA4 scFv, linker, anti-TIM3 scFv, IgG4 hinge, CD28 transmembrane region, CD28 co-stimulatory domain), … (other, Membrane-anchored on transduced T cells that also express the anti-CD19 CAR) QVQLVESGGGVVQPGRSLRLSCAASGFTFSSYGMHWVRQAPGKGLEWVAVIWYDGSNKYYADSVKGRFTISRDNSKNTLYLQMNSLRAEDTAVFYCARAPNYIGAFDVWGQGTMVTVSSGGGGSGGGGSGGGGSDIQMTQSPSSLSASVGDRVTITCRASQGISSWLAWYQQKPEKAPKSLIYAASSLQSGVPSRFSGSGSGTDFTLTISSLQPEDFATYYCQQYNSYPPTFGQGTKVEIKGGGGSGGGGSGGGGSQVQLVQSGAEVKKPGSSVKVSCKASGYTFTSYNMHWVRQAPGQGLEWMGDIYPGNGDTSYNQKFKGRVTITADKSTSTVYMELSSLRSEDTAVYYCARVGGAFPMDYWGQGTTVTVSSGGGGSGGGGSGGGGSAIQLTQSPSSLSASVGDRVTITCRASESVEYYGTSLMQWYQQKPGKAPKLLIYAASNVESGVPSRFSGSGSGTDFTLTISSLQPEDFATYFCQQSRKDPSTFGGGTKVEIKESKYGPPCPPCPFWVLVVVGGVLACYSLLVTVAFIIFWVRSKRSRLLHSDYMNMTPRRPGPTRKHYQPYAPPRDFAAYRS	binds			
immunosuppressive molecule of plasmid CAR19-PL3 (anti-PD1 scFv, linker, anti-LAG3 scFv, IgG4 hinge, CD28 transmembrane region, CD28 co-stimulatory domain), on … (other, Membrane-anchored on transduced T cells that also express the anti-CD19 CAR) QVQLVQSGVEVKKPGASVKVSCKASGYTFTNYYMYWVRQAPGQGLEWMGGINPSNGGTNFNEKFKNRVTLTTDSSTTTAYMELKSLQFDDTAVYYCARRDYRFDMGFDYWGQGTTVTVSSGGGGSGGGGSGGGGSEIVLTQSPATLSLSPGERATLSCRASKGVSTSGYSYLHWYQQKPGQAPRLLIYLASYLESGVPARFSGSGSGTDFTLTISSLEPEDFAVYYCQHSRDLPLTFGGGTKVEIKGGGGSGGGGSGGGGSQVQLQQWGAGLLKPSETLSLTCAVYGGSFSDYYWNWIRQPPGKGLEWIGEINHRGSTNSNPSLKSRVTLSLDTSKNQFSLKLRSVTAADTAVYYCAFGYSDYEYNWFDPWGQGTLVTVSSGGGGSGGGGSGGGGSEIVLTQSPATLSLSPGERATLSCRASQSISSYLAWYQQKPGQAPRLLIYDASNRATGIPARFSGSGSGTDFTLTISSLEPEDFAVYYCQQRSNWPLTFGQGTNLEIKRESKYGPPCPPCPFWVLVVVGGVLACYSLLVTVAFIIFWVRSKRSRLLHSDYMNMTPRRPGPTRKHYQPYAPPRDFAAYRS		binds	binds	
immunosuppressive molecule of plasmid CAR19-PT3 (anti-PD1 scFv, linker, anti-TIM3 scFv, IgG4 hinge, CD28 transmembrane region, CD28 co-stimulatory domain), on … (other, Membrane-anchored on transduced T cells that also express the anti-CD19 CAR) QVQLVQSGVEVKKPGASVKVSCKASGYTFTNYYMYWVRQAPGQGLEWMGGINPSNGGTNFNEKFKNRVTLTTDSSTTTAYMELKSLQFDDTAVYYCARRDYRFDMGFDYWGQGTTVTVSSGGGGSGGGGSGGGGSEIVLTQSPATLSLSPGERATLSCRASKGVSTSGYSYLHWYQQKPGQAPRLLIYLASYLESGVPARFSGSGSGTDFTLTISSLEPEDFAVYYCQHSRDLPLTFGGGTKVEIKGGGGSGGGGSGGGGSQVQLVQSGAEVKKPGSSVKVSCKASGYTFTSYNMHWVRQAPGQGLEWMGDIYPGNGDTSYNQKFKGRVTITADKSTSTVYMELSSLRSEDTAVYYCARVGGAFPMDYWGQGTTVTVSSGGGGSGGGGSGGGGSAIQLTQSPSSLSASVGDRVTITCRASESVEYYGTSLMQWYQQKPGKAPKLLIYAASNVESGVPSRFSGSGSGTDFTLTISSLQPEDFATYFCQQSRKDPSTFGGGTKVEIKESKYGPPCPPCPFWVLVVVGGVLACYSLLVTVAFIIFWVRSKRSRLLHSDYMNMTPRRPGPTRKHYQPYAPPRDFAAYRS			binds	
immunosuppressive molecule of plasmid CAR19-C4 (anti-CTLA4 scFv, IgG4 hinge, CD28 transmembrane region, CD28 co-stimulatory domain), on CAR19-C4 T cells (other, Membrane-anchored on transduced T cells that also express the anti-CD19 CAR) QVQLVESGGGVVQPGRSLRLSCAASGFTFSSYGMHWVRQAPGKGLEWVAVIWYDGSNKYYADSVKGRFTISRDNSKNTLYLQMNSLRAEDTAVFYCARAPNYIGAFDVWGQGTMVTVSSGGGGSGGGGSGGGGSDIQMTQSPSSLSASVGDRVTITCRASQGISSWLAWYQQKPEKAPKSLIYAASSLQSGVPSRFSGSGSGTDFTLTISSLQPEDFATYYCQQYNSYPPTFGQGTKVEIKESKYGPPCPPCPFWVLVVVGGVLACYSLLVTVAFIIFWVRSKRSRLLHSDYMNMTPRRPGPTRKHYQPYAPPRDFAAYRS	binds			
immunosuppressive molecule of plasmid CAR19-C4L3 (anti-CTLA4 scFv, linker, anti-LAG3 scFv, IgG4 hinge, CD28 transmembrane region, CD28 co-stimulatory domain), … (other, Membrane-anchored on transduced T cells that also express the anti-CD19 CAR) QVQLVESGGGVVQPGRSLRLSCAASGFTFSSYGMHWVRQAPGKGLEWVAVIWYDGSNKYYADSVKGRFTISRDNSKNTLYLQMNSLRAEDTAVFYCARAPNYIGAFDVWGQGTMVTVSSGGGGSGGGGSGGGGSDIQMTQSPSSLSASVGDRVTITCRASQGISSWLAWYQQKPEKAPKSLIYAASSLQSGVPSRFSGSGSGTDFTLTISSLQPEDFATYYCQQYNSYPPTFGQGTKVEIKGGGGSGGGGSGGGGSQVQLQQWGAGLLKPSETLSLTCAVYGGSFSDYYWNWIRQPPGKGLEWIGEINHRGSTNSNPSLKSRVTLSLDTSKNQFSLKLRSVTAADTAVYYCAFGYSDYEYNWFDPWGQGTLVTVSSGGGGSGGGGSGGGGSEIVLTQSPATLSLSPGERATLSCRASQSISSYLAWYQQKPGQAPRLLIYDASNRATGIPARFSGSGSGTDFTLTISSLEPEDFAVYYCQQRSNWPLTFGQGTNLEIKRESKYGPPCPPCPFWVLVVVGGVLACYSLLVTVAFIIFWVRSKRSRLLHSDYMNMTPRRPGPTRKHYQPYAPPRDFAAYRS	binds	binds		
immunosuppressive molecule of plasmid CAR19-ATT (anti-NKG2A scFv, linker, anti-TIGIT scFv, IgG4 hinge, CD28 transmembrane region, CD28 co-stimulatory domain), … (other, Membrane-anchored on transduced T cells that also express the anti-CD19 CAR) EIVLTQSPATLSLSPGERATMTCSASSSVSSYIYWYQQKPGQAPRLLIYLTSNLASGIPARFSGSGSGTDFTLTISSLEPEDFATYYCQQWSGNPYTFGQGTKVEIKGSTSGSGKPGSGEGSTKGEVQLVESGGGLVKPGGSLRLSCAASGFTFSSYAMSWVRQAPGKGLEWVAEISSGGSYTYYPDSVKGRFTISRDNAKNSLYLQMNSLRAEDTAVYYCTRHGDYPRFFDVWGQGTLVTVSSGGGGSGGGGSGGGGSEVQLQQSGPGLVKPSQTLSLTCAISGDSVSSNSAAWNWIRQSPSRGLEWLGKTYYRFKWYSDYAVSVKGRITINPDTSKNQFSLQLNSVTPEDTAVFYCTRESTTYDLLAGPFDYWGQGTLVTVSSGGGGSGGGGSGGGGSDIVMTQSPDSLAVSLGERATINCKSSQTVLYSSNNKKYLAWYQQKPGQPPNLLIYWASTRESGVPDRFSGSGSGTDFTLTISSLQAEDVAVYYCQQYYSTPFTFGPGTKVEIKRESKYGPPCPPCPFWVLVVVGGVLACYSLLVTVAFIIFWVRSKRSRLLHSDYMNMTPRRPGPTRKHYQPYAPPRDFAAYRS				binding result [4]: binds
immunosuppressive molecule of plasmid CAR19-AL3 (anti-NKG2A scFv, linker, anti-LAG3 scFv, IgG4 hinge, CD28 transmembrane region, CD28 co-stimulatory domain), … (other, Membrane-anchored on lentivirally transduced human T cells that also express the anti-CD19 CAR (separated by T2A)) EIVLTQSPATLSLSPGERATMTCSASSSVSSYIYWYQQKPGQAPRLLIYLTSNLASGIPARFSGSGSGTDFTLTISSLEPEDFATYYCQQWSGNPYTFGQGTKVEIKGSTSGSGKPGSGEGSTKGEVQLVESGGGLVKPGGSLRLSCAASGFTFSSYAMSWVRQAPGKGLEWVAEISSGGSYTYYPDSVKGRFTISRDNAKNSLYLQMNSLRAEDTAVYYCTRHGDYPRFFDVWGQGTLVTVSSGGGGSGGGGSGGGGSQVQLQQWGAGLLKPSETLSLTCAVYGGSFSDYYWNWIRQPPGKGLEWIGEINHRGSTNSNPSLKSRVTLSLDTSKNQFSLKLRSVTAADTAVYYCAFGYSDYEYNWFDPWGQGTLVTVSSGGGGSGGGGSGGGGSEIVLTQSPATLSLSPGERATLSCRASQSISSYLAWYQQKPGQAPRLLIYDASNRATGIPARFSGSGSGTDFTLTISSLEPEDFAVYYCQQRSNWPLTFGQGTNLEIKRESKYGPPCPPCPFWVLVVVGGVLACYSLLVTVAFIIFWVRSKRSRLLHSDYMNMTPRRPGPTRKHYQPYAPPRDFAAYRS		binds		
immunosuppressive molecule of plasmid CAR19-PC4 (anti-PD1 scFv, linker, anti-CTLA4 scFv, IgG4 hinge, CD28 transmembrane region, CD28 co-stimulatory domain), on … (other, Membrane-anchored on transduced T cells that also express the anti-CD19 CAR) QVQLVQSGVEVKKPGASVKVSCKASGYTFTNYYMYWVRQAPGQGLEWMGGINPSNGGTNFNEKFKNRVTLTTDSSTTTAYMELKSLQFDDTAVYYCARRDYRFDMGFDYWGQGTTVTVSSGGGGSGGGGSGGGGSEIVLTQSPATLSLSPGERATLSCRASKGVSTSGYSYLHWYQQKPGQAPRLLIYLASYLESGVPARFSGSGSGTDFTLTISSLEPEDFAVYYCQHSRDLPLTFGGGTKVEIKGGGGSGGGGSGGGGSQVQLVESGGGVVQPGRSLRLSCAASGFTFSSYGMHWVRQAPGKGLEWVAVIWYDGSNKYYADSVKGRFTISRDNSKNTLYLQMNSLRAEDTAVFYCARAPNYIGAFDVWGQGTMVTVSSGGGGSGGGGSGGGGSDIQMTQSPSSLSASVGDRVTITCRASQGISSWLAWYQQKPEKAPKSLIYAASSLQSGVPSRFSGSGSGTDFTLTISSLQPEDFATYYCQQYNSYPPTFGQGTKVEIKESKYGPPCPPCPFWVLVVVGGVLACYSLLVTVAFIIFWVRSKRSRLLHSDYMNMTPRRPGPTRKHYQPYAPPRDFAAYRS	binds		binds	
